How the values were obtained:
Assay in all cases: SAXS
[1] = biological target: TrK13-A578S (truncated and strep-tagged recombinant PfKelch13 with A578S) (P. falciparum 3D7)
[2] = biological target: TrK13-C580Y (truncated and strep-tagged recombinant PfKelch13 with C580Y) (P. falciparum 3D7)
[3] = biological target: TrK13-R539T (truncated and strep-tagged recombinant PfKelch13 with R539T) (P. falciparum 3D7)
[4] = biological target: TrK13-WT (truncated and strep-tagged recombinant PfKelch13, wild type) (P. falciparum 3D7)

“TrK13-A578S (truncated and strep-tagged recombinant PfKelch13 with A578S) (domain or fragment)” was tested. Which stoichiometry N [1] did it give?
Its stoichiometry N is 6.

“TrK13-C580Y (truncated and strep-tagged recombinant PfKelch13 with C580Y) (domain or fragment)” was tested. Which stoichiometry N [2] did it give?
The stoichiometry N was 6.

How did the stoichiometry N [3] turn out when “TrK13-R539T (truncated and strep-tagged recombinant PfKelch13 with R539T) (domain or fragment)” was run?
Its stoichiometry N is 6.

With “TrK13-WT (truncated and strep-tagged recombinant PfKelch13, wild type) (domain or fragment)” as the substance, how does the stoichiometry N [4] read?
The stoichiometry N was 6.
